The chains are these.
B1: GLS3000 S26P one-arm antibody (antibody, human IgG1, kappa, L234A L235A, N297A, name in Kabat numbering)
heavy: QVQLVESGGGVVQPGRSLRLSCAASGFTFSNAWMHWVRQAPGKGLEWVAQIKAKSNNYATYYAESVKGRFTISRDDSKNSLYLQMNSLKTEDTAVYYCRYVHYGAYYGVDAWGQGTTVTVSSASTKGPSVFPLAPSSKSTSGGTAALGCLVKDYFPEPVTVSWNSGALTSGVHTFPAVLQSSGLYSLSSVVTVPSSSLGTQTYICNVNHKPSNTKVDKKVEPKSCDKTHTCPPCPAPEAAGGPSVFLFPPKPKDTLMISRTPEVTCVVVDVSHEDPEVKFNWYVDGVEVHNAKTKPREEQYASTYRVVSVLTVLHQDWLNGKEYKCKVSNKALPAPIEKTISKAKGQPREPQVYTLPPSRCELTKNQVSLSCAVKGFYPSDIAVEWESNGQPENNYKTTPPVLDSDGSFFLVSKLTVDKSRWQQGNVFSCSVMHEALHNHYTQKSLSLSPDYKDDDDK
chain: EPKSSDKTHTCPPCPAPELLGGPSVFLFPPKPKDTLMISRTPEVTCVVVDVSHEDPEVKFNWYVDGVEVHNAKTKPREEQYNSTYRVVSVLTVLHQDWLNGKEYKCKVSNKALPAPIEKTISKAKGQPREPQVCTLPPSRDELTKNQVSLWCLVKGFYPSDIAVEWESNGQPENNYKTTPPVLDSDGSFFLYSKLTVDKSRWQQGNVFSCSVMHEALHNRYTQKSLSLSP
light: DIVMTQSPLSLPVTPGEPASISCRSPQSLVHSNRNTYLHWYQQKPGQAPRLLIYKVSNRFSGVPDRFSGSGSGTDFTLKISRVEAEDVGVYYCGQGTQVPYTFGQGTKLEIKRTVAAPSVFIFPPSDEQLKSGTASVVCLLNNFYPREAKVQWKVDNALQSGNSQESVTEQDSKDSTYSLSSTLTLSKADYEKHKVYACEVTHQGLSSPVTKSFNRGEC
B2: GLS3000 S27aN one-arm antibody (antibody, human IgG1, kappa, L234A L235A, N297A, name in Kabat numbering)
heavy: QVQLVESGGGVVQPGRSLRLSCAASGFTFSNAWMHWVRQAPGKGLEWVAQIKAKSNNYATYYAESVKGRFTISRDDSKNSLYLQMNSLKTEDTAVYYCRYVHYGAYYGVDAWGQGTTVTVSSASTKGPSVFPLAPSSKSTSGGTAALGCLVKDYFPEPVTVSWNSGALTSGVHTFPAVLQSSGLYSLSSVVTVPSSSLGTQTYICNVNHKPSNTKVDKKVEPKSCDKTHTCPPCPAPEAAGGPSVFLFPPKPKDTLMISRTPEVTCVVVDVSHEDPEVKFNWYVDGVEVHNAKTKPREEQYASTYRVVSVLTVLHQDWLNGKEYKCKVSNKALPAPIEKTISKAKGQPREPQVYTLPPSRCELTKNQVSLSCAVKGFYPSDIAVEWESNGQPENNYKTTPPVLDSDGSFFLVSKLTVDKSRWQQGNVFSCSVMHEALHNHYTQKSLSLSPDYKDDDDK
chain: EPKSSDKTHTCPPCPAPELLGGPSVFLFPPKPKDTLMISRTPEVTCVVVDVSHEDPEVKFNWYVDGVEVHNAKTKPREEQYNSTYRVVSVLTVLHQDWLNGKEYKCKVSNKALPAPIEKTISKAKGQPREPQVCTLPPSRDELTKNQVSLWCLVKGFYPSDIAVEWESNGQPENNYKTTPPVLDSDGSFFLYSKLTVDKSRWQQGNVFSCSVMHEALHNRYTQKSLSLSP
light: DIVMTQSPLSLPVTPGEPASISCRSSQNLVHSNRNTYLHWYQQKPGQAPRLLIYKVSNRFSGVPDRFSGSGSGTDFTLKISRVEAEDVGVYYCGQGTQVPYTFGQGTKLEIKRTVAAPSVFIFPPSDEQLKSGTASVVCLLNNFYPREAKVQWKVDNALQSGNSQESVTEQDSKDSTYSLSSTLTLSKADYEKHKVYACEVTHQGLSSPVTKSFNRGEC
B3: GLS3000 S27aG one-arm antibody (antibody, human IgG1, kappa, L234A L235A, N297A, name in Kabat numbering)
heavy: QVQLVESGGGVVQPGRSLRLSCAASGFTFSNAWMHWVRQAPGKGLEWVAQIKAKSNNYATYYAESVKGRFTISRDDSKNSLYLQMNSLKTEDTAVYYCRYVHYGAYYGVDAWGQGTTVTVSSASTKGPSVFPLAPSSKSTSGGTAALGCLVKDYFPEPVTVSWNSGALTSGVHTFPAVLQSSGLYSLSSVVTVPSSSLGTQTYICNVNHKPSNTKVDKKVEPKSCDKTHTCPPCPAPEAAGGPSVFLFPPKPKDTLMISRTPEVTCVVVDVSHEDPEVKFNWYVDGVEVHNAKTKPREEQYASTYRVVSVLTVLHQDWLNGKEYKCKVSNKALPAPIEKTISKAKGQPREPQVYTLPPSRCELTKNQVSLSCAVKGFYPSDIAVEWESNGQPENNYKTTPPVLDSDGSFFLVSKLTVDKSRWQQGNVFSCSVMHEALHNHYTQKSLSLSPDYKDDDDK
chain: EPKSSDKTHTCPPCPAPELLGGPSVFLFPPKPKDTLMISRTPEVTCVVVDVSHEDPEVKFNWYVDGVEVHNAKTKPREEQYNSTYRVVSVLTVLHQDWLNGKEYKCKVSNKALPAPIEKTISKAKGQPREPQVCTLPPSRDELTKNQVSLWCLVKGFYPSDIAVEWESNGQPENNYKTTPPVLDSDGSFFLYSKLTVDKSRWQQGNVFSCSVMHEALHNRYTQKSLSLSP
light: DIVMTQSPLSLPVTPGEPASISCRSSQGLVHSNRNTYLHWYQQKPGQAPRLLIYKVSNRFSGVPDRFSGSGSGTDFTLKISRVEAEDVGVYYCGQGTQVPYTFGQGTKLEIKRTVAAPSVFIFPPSDEQLKSGTASVVCLLNNFYPREAKVQWKVDNALQSGNSQESVTEQDSKDSTYSLSSTLTLSKADYEKHKVYACEVTHQGLSSPVTKSFNRGEC
B4: GLS3000 S27aE one-arm antibody (antibody, human IgG1, kappa, L234A L235A, N297A, name in Kabat numbering)
heavy: QVQLVESGGGVVQPGRSLRLSCAASGFTFSNAWMHWVRQAPGKGLEWVAQIKAKSNNYATYYAESVKGRFTISRDDSKNSLYLQMNSLKTEDTAVYYCRYVHYGAYYGVDAWGQGTTVTVSSASTKGPSVFPLAPSSKSTSGGTAALGCLVKDYFPEPVTVSWNSGALTSGVHTFPAVLQSSGLYSLSSVVTVPSSSLGTQTYICNVNHKPSNTKVDKKVEPKSCDKTHTCPPCPAPEAAGGPSVFLFPPKPKDTLMISRTPEVTCVVVDVSHEDPEVKFNWYVDGVEVHNAKTKPREEQYASTYRVVSVLTVLHQDWLNGKEYKCKVSNKALPAPIEKTISKAKGQPREPQVYTLPPSRCELTKNQVSLSCAVKGFYPSDIAVEWESNGQPENNYKTTPPVLDSDGSFFLVSKLTVDKSRWQQGNVFSCSVMHEALHNHYTQKSLSLSPDYKDDDDK
chain: EPKSSDKTHTCPPCPAPELLGGPSVFLFPPKPKDTLMISRTPEVTCVVVDVSHEDPEVKFNWYVDGVEVHNAKTKPREEQYNSTYRVVSVLTVLHQDWLNGKEYKCKVSNKALPAPIEKTISKAKGQPREPQVCTLPPSRDELTKNQVSLWCLVKGFYPSDIAVEWESNGQPENNYKTTPPVLDSDGSFFLYSKLTVDKSRWQQGNVFSCSVMHEALHNRYTQKSLSLSP
light: DIVMTQSPLSLPVTPGEPASISCRSSQELVHSNRNTYLHWYQQKPGQAPRLLIYKVSNRFSGVPDRFSGSGSGTDFTLKISRVEAEDVGVYYCGQGTQVPYTFGQGTKLEIKRTVAAPSVFIFPPSDEQLKSGTASVVCLLNNFYPREAKVQWKVDNALQSGNSQESVTEQDSKDSTYSLSSTLTLSKADYEKHKVYACEVTHQGLSSPVTKSFNRGEC
B5: GLS3000 S27aD one-arm antibody (antibody, human IgG1, kappa, L234A L235A, N297A, name in Kabat numbering)
heavy: QVQLVESGGGVVQPGRSLRLSCAASGFTFSNAWMHWVRQAPGKGLEWVAQIKAKSNNYATYYAESVKGRFTISRDDSKNSLYLQMNSLKTEDTAVYYCRYVHYGAYYGVDAWGQGTTVTVSSASTKGPSVFPLAPSSKSTSGGTAALGCLVKDYFPEPVTVSWNSGALTSGVHTFPAVLQSSGLYSLSSVVTVPSSSLGTQTYICNVNHKPSNTKVDKKVEPKSCDKTHTCPPCPAPEAAGGPSVFLFPPKPKDTLMISRTPEVTCVVVDVSHEDPEVKFNWYVDGVEVHNAKTKPREEQYASTYRVVSVLTVLHQDWLNGKEYKCKVSNKALPAPIEKTISKAKGQPREPQVYTLPPSRCELTKNQVSLSCAVKGFYPSDIAVEWESNGQPENNYKTTPPVLDSDGSFFLVSKLTVDKSRWQQGNVFSCSVMHEALHNHYTQKSLSLSPDYKDDDDK
chain: EPKSSDKTHTCPPCPAPELLGGPSVFLFPPKPKDTLMISRTPEVTCVVVDVSHEDPEVKFNWYVDGVEVHNAKTKPREEQYNSTYRVVSVLTVLHQDWLNGKEYKCKVSNKALPAPIEKTISKAKGQPREPQVCTLPPSRDELTKNQVSLWCLVKGFYPSDIAVEWESNGQPENNYKTTPPVLDSDGSFFLYSKLTVDKSRWQQGNVFSCSVMHEALHNRYTQKSLSLSP
light: DIVMTQSPLSLPVTPGEPASISCRSSQDLVHSNRNTYLHWYQQKPGQAPRLLIYKVSNRFSGVPDRFSGSGSGTDFTLKISRVEAEDVGVYYCGQGTQVPYTFGQGTKLEIKRTVAAPSVFIFPPSDEQLKSGTASVVCLLNNFYPREAKVQWKVDNALQSGNSQESVTEQDSKDSTYSLSSTLTLSKADYEKHKVYACEVTHQGLSSPVTKSFNRGEC
B6: GLS3000 S27aI one-arm antibody (antibody, human IgG1, kappa, L234A L235A, N297A, name in Kabat numbering)
heavy: QVQLVESGGGVVQPGRSLRLSCAASGFTFSNAWMHWVRQAPGKGLEWVAQIKAKSNNYATYYAESVKGRFTISRDDSKNSLYLQMNSLKTEDTAVYYCRYVHYGAYYGVDAWGQGTTVTVSSASTKGPSVFPLAPSSKSTSGGTAALGCLVKDYFPEPVTVSWNSGALTSGVHTFPAVLQSSGLYSLSSVVTVPSSSLGTQTYICNVNHKPSNTKVDKKVEPKSCDKTHTCPPCPAPEAAGGPSVFLFPPKPKDTLMISRTPEVTCVVVDVSHEDPEVKFNWYVDGVEVHNAKTKPREEQYASTYRVVSVLTVLHQDWLNGKEYKCKVSNKALPAPIEKTISKAKGQPREPQVYTLPPSRCELTKNQVSLSCAVKGFYPSDIAVEWESNGQPENNYKTTPPVLDSDGSFFLVSKLTVDKSRWQQGNVFSCSVMHEALHNHYTQKSLSLSPDYKDDDDK
chain: EPKSSDKTHTCPPCPAPELLGGPSVFLFPPKPKDTLMISRTPEVTCVVVDVSHEDPEVKFNWYVDGVEVHNAKTKPREEQYNSTYRVVSVLTVLHQDWLNGKEYKCKVSNKALPAPIEKTISKAKGQPREPQVCTLPPSRDELTKNQVSLWCLVKGFYPSDIAVEWESNGQPENNYKTTPPVLDSDGSFFLYSKLTVDKSRWQQGNVFSCSVMHEALHNRYTQKSLSLSP
light: DIVMTQSPLSLPVTPGEPASISCRSSQILVHSNRNTYLHWYQQKPGQAPRLLIYKVSNRFSGVPDRFSGSGSGTDFTLKISRVEAEDVGVYYCGQGTQVPYTFGQGTKLEIKRTVAAPSVFIFPPSDEQLKSGTASVVCLLNNFYPREAKVQWKVDNALQSGNSQESVTEQDSKDSTYSLSSTLTLSKADYEKHKVYACEVTHQGLSSPVTKSFNRGEC

We go through six molecules from US20260049138A1 (Chugai, published 2026).

For the experiment, the target named is T1, CD3ε homodimer protein (human, UniProt P07766 23-126, limits assumed).
T1 construct: also called CD3 (CD3ε)
T1 sequence (P07766 23-126 limits assumed): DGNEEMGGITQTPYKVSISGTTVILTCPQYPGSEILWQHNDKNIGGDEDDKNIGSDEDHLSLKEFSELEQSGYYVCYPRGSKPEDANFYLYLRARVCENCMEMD
Put plainly: SPR Biacore T200, CD3ε homodimer on chip.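 Further: Light-chain single-residue variant antibodies injected over amine-coupled CD3ε homodimer on a CM4 chip at 25 °C, bound amount divided by that of the GLS3000-containing antibody.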 On the technique in general: Surface plasmon resonance follows binding to a sensor surface in real time, without labels.
In the case of B1, the “ratio of amount bound vs unaltered GLS3000” value (“ratio of amount bound” below) was 0.78.

Consider B2, for which the “ratio of amount bound” value amounted to 1.1.

Consider B3, for which the “ratio of amount bound” value was found to be 1.03.

In the case of B4, the “ratio of amount bound” value is 0.81.

In the case of B5, the “ratio of amount bound” value worked out at 0.79.

B6: the “ratio of amount bound” value is 1.
